Experimental data taken from article PMC8660880.

Biological target: mS105 (Chlamydomonas reinhardtii (endogenous in strain CC-4351))
Experiment: cryo-EM structure; single-particle reconstruction of the native small subunit (SSU) of the C. reinhardtii mitoribosome isolated from purified mitochondria; Monosome buffer; 5.49 A, focused refinement 4.19 A (body) and 4.47 A (head)

stoichiometry N: 3
Substance: mS105 (natural protein)
